Reference: patent US20230321189

Molecular target: tropomyosin-receptor kinase B-full-length (TrkB-FL), endogenous rat, Q63604
Sequence (Q63604 32-821): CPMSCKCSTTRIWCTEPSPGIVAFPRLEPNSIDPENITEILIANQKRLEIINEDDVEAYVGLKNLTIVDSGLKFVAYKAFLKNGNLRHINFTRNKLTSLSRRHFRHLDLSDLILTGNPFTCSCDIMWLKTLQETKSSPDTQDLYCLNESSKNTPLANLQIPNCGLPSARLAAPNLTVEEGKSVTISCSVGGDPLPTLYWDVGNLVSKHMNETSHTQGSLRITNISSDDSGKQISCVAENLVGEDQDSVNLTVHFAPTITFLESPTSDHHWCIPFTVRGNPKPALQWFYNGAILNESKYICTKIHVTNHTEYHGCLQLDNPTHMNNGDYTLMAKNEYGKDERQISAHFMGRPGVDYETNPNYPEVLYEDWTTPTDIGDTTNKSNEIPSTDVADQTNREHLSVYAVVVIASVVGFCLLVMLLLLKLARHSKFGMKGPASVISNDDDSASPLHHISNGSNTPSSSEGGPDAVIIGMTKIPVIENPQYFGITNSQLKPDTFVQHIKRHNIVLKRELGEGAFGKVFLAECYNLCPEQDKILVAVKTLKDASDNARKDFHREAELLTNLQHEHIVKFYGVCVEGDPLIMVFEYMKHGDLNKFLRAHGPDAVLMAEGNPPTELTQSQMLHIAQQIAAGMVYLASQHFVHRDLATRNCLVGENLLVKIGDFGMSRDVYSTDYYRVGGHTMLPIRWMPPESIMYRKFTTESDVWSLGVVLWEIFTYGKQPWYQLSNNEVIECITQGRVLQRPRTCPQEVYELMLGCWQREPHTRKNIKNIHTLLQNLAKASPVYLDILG

B1: purified rat m-calpain (protein)
chain: MAGIAMKLAKDREAAEGLGSHERAIKYLNQDYETLRNECLEAGALFQDPSFPALPSSLGFKELGPYSSKTRGIEWKRPTEICADPQFIIGGATRTDICQGALGDCWLLAAIASLTLNEEILARVVPLDQSFQENYAGIFHFQFWQYGEWVEVVVDDRLPTKDGELLFVHSAEGSEFWSALLEKAYAKINGCYEALSGGATTEGFEDFTGGIAEWYELRKPPPNLFKIIQKALEKGSLLGCSIDITSAADSEAVTYQKLVKGHAYSVTGAEEVESSGSLQKLIRIRNPWGQVEWTGKWNDNCPSWNTVDPEVRANLTERQEDGEFWMSFSDFLRHYSRLEICNLTPDTLTCDSYKKWKLTKMDGNWRRGSTAGGCRNYPNTFWMNPQYLIKLEEEDEDDEDGERGCTFLVGLIQKHRRRQRKMGEDMHTIGFGIYEVPEELTGQTNIHLSKNFFLTTRARERSDTFINLREVLNRFKLPPGEYVLVPSTFEPHKNGDFCIRVFSEKKADYQTVDDEIEANIEEIEANEEDIGDGFRRLFAQLAGEDAEISAFELQTILRRVLAKREDIKSDGFSIETCKIMVDMLDEDGSGKLGLKEFYILWTKIQKYQKIYREIDVDRSGTMNSYEMRKALEEAGFKLPCQLHQVIVARFADDELIIDFDNFVRCLVRLEILFKIFKQLDPENTGTIQLDLISWLSFSVL
TrkB-FL protein levels and TrkB-ICD formation in DIV8 neuronal cultures lysate (western blot, enzyme cleavage): decrease of TrkB-FL protein levels with concomitant TrkB-ICD formation when both exogenous m-calpain (1 or 2 EU) and CaCl2 (2 mM) were added
TrkB-FL protein levels and TrkB-ICD formation in adult rat brain cortex homogenate (western blot, enzyme cleavage): decrease of TrkB-FL protein levels with concomitant TrkB-ICD formation when both exogenous m-calpain (1 or 2 enzymatic units, EU) and CaCl2 (2 mM) were added
